Assay results from patent US20230365662A1.
Several values for one entry are separate records, joined by “and”; a condition that tells them apart may be missing. Equal entries are not always repeated.

Target: HRgpA-6H (Porphyromonas gingivalis) (UniProt P28784)
Experiment: ELISA on coated HRgpA-6H

Sequence of UniProt P28784 (P28784 228-991 limits assumed): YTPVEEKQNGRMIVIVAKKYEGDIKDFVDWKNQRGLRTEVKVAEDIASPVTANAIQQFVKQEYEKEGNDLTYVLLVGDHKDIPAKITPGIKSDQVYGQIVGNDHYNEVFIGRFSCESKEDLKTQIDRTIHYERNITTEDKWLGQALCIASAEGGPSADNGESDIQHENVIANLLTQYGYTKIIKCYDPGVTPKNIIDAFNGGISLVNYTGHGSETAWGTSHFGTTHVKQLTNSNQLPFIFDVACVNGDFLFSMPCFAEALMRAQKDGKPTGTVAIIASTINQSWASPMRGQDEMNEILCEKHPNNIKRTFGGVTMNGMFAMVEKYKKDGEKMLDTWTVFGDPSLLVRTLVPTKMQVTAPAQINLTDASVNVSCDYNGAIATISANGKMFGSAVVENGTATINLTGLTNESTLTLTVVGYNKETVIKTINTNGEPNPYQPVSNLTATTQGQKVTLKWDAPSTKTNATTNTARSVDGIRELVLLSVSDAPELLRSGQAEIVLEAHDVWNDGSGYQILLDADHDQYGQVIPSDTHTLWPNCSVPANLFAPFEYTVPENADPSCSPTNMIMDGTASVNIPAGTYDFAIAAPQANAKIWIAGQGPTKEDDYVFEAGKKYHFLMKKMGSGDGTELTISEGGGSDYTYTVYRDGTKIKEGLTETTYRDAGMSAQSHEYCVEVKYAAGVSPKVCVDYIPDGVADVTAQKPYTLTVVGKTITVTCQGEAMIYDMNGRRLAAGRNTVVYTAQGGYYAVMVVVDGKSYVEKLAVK

B1: KB001 mouse Fab FASEBA VH Y59T (Fab, V domains shown)
VH: EVQLKQSGPGLVAPSQSLSITCTVSGFSLSIYSVHWVRQPPGKGLEWLGMIWGGGSSDTNSALKSRLSISKDNSKSQVFLKMNSLQTDDTAMYYCARNGNFYAMDYWGQGTSVTVSS
VL: QIVLTQSPAIMSASLGERVTMTCTASSSVSSSFLHWYQQKPGSSPQLWIYSTSNLASGVPARFSGSGSGTSYSLTISSMEAEDAATYYCHQYHHSPYIYTFGGGTKLEIK
- OD450nm: 0.744
- Ratio OD(Variant)/OD(WT): 0.941

B2: KB001 mouse Fab FASEBA VH N60S (Fab, V domains shown)
VH: EVQLKQSGPGLVAPSQSLSITCTVSGFSLSIYSVHWVRQPPGKGLEWLGMIWGGGSSDYSSALKSRLSISKDNSKSQVFLKMNSLQTDDTAMYYCARNGNFYAMDYWGQGTSVTVSS
VL: QIVLTQSPAIMSASLGERVTMTCTASSSVSSSFLHWYQQKPGSSPQLWIYSTSNLASGVPARFSGSGSGTSYSLTISSMEAEDAATYYCHQYHHSPYIYTFGGGTKLEIK
- OD450nm: 0.452
- Ratio OD(Variant)/OD(WT): 0.916

B3: KB001 mouse Fab FASEBA VH S61G (Fab, V domains shown)
VH: EVQLKQSGPGLVAPSQSLSITCTVSGFSLSIYSVHWVRQPPGKGLEWLGMIWGGGSSDYNGALKSRLSISKDNSKSQVFLKMNSLQTDDTAMYYCARNGNFYAMDYWGQGTSVTVSS
VL: QIVLTQSPAIMSASLGERVTMTCTASSSVSSSFLHWYQQKPGSSPQLWIYSTSNLASGVPARFSGSGSGTSYSLTISSMEAEDAATYYCHQYHHSPYIYTFGGGTKLEIK
- OD450nm: 0.46 and 0.476
- Ratio OD(Variant)/OD(WT): 0.932 and 0.965

B4: KB001 mouse Fab FASEBA VH N60Q (Fab, V domains shown)
VH: EVQLKQSGPGLVAPSQSLSITCTVSGFSLSIYSVHWVRQPPGKGLEWLGMIWGGGSSDYQSALKSRLSISKDNSKSQVFLKMNSLQTDDTAMYYCARNGNFYAMDYWGQGTSVTVSS
VL: QIVLTQSPAIMSASLGERVTMTCTASSSVSSSFLHWYQQKPGSSPQLWIYSTSNLASGVPARFSGSGSGTSYSLTISSMEAEDAATYYCHQYHHSPYIYTFGGGTKLEIK
- OD450nm: 0.447 and 0.402
- Ratio OD(Variant)/OD(WT): 0.906 and 0.815

B5: KB001 mouse Fab FASEBA VH S61R (Fab, V domains shown)
VH: EVQLKQSGPGLVAPSQSLSITCTVSGFSLSIYSVHWVRQPPGKGLEWLGMIWGGGSSDYNRALKSRLSISKDNSKSQVFLKMNSLQTDDTAMYYCARNGNFYAMDYWGQGTSVTVSS
VL: QIVLTQSPAIMSASLGERVTMTCTASSSVSSSFLHWYQQKPGSSPQLWIYSTSNLASGVPARFSGSGSGTSYSLTISSMEAEDAATYYCHQYHHSPYIYTFGGGTKLEIK
- OD450nm: 0.438
- Ratio OD(Variant)/OD(WT): 0.888

B6: KB001 mouse Fab FASEBA VH S61C (Fab, V domains shown)
VH: EVQLKQSGPGLVAPSQSLSITCTVSGFSLSIYSVHWVRQPPGKGLEWLGMIWGGGSSDYNCALKSRLSISKDNSKSQVFLKMNSLQTDDTAMYYCARNGNFYAMDYWGQGTSVTVSS
VL: QIVLTQSPAIMSASLGERVTMTCTASSSVSSSFLHWYQQKPGSSPQLWIYSTSNLASGVPARFSGSGSGTSYSLTISSMEAEDAATYYCHQYHHSPYIYTFGGGTKLEIK
- OD450nm: 0.431
- Ratio OD(Variant)/OD(WT): 0.873

B7: KB001 mouse Fab FASEBA VH N60T (Fab, V domains shown)
VH: EVQLKQSGPGLVAPSQSLSITCTVSGFSLSIYSVHWVRQPPGKGLEWLGMIWGGGSSDYTSALKSRLSISKDNSKSQVFLKMNSLQTDDTAMYYCARNGNFYAMDYWGQGTSVTVSS
VL: QIVLTQSPAIMSASLGERVTMTCTASSSVSSSFLHWYQQKPGSSPQLWIYSTSNLASGVPARFSGSGSGTSYSLTISSMEAEDAATYYCHQYHHSPYIYTFGGGTKLEIK
- OD450nm: 0.406
- Ratio OD(Variant)/OD(WT): 0.823

B8: KB001 mouse Fab FASEBA VH Y59F (Fab, V domains shown)
VH: EVQLKQSGPGLVAPSQSLSITCTVSGFSLSIYSVHWVRQPPGKGLEWLGMIWGGGSSDFNSALKSRLSISKDNSKSQVFLKMNSLQTDDTAMYYCARNGNFYAMDYWGQGTSVTVSS
VL: QIVLTQSPAIMSASLGERVTMTCTASSSVSSSFLHWYQQKPGSSPQLWIYSTSNLASGVPARFSGSGSGTSYSLTISSMEAEDAATYYCHQYHHSPYIYTFGGGTKLEIK
- OD450nm: 0.668
- Ratio OD(Variant)/OD(WT): 0.845

B9: KB001 mouse Fab FASEBA VH Y59M/S571 (Fab, V domains shown)
VH: EVQLKQSGPGLVAPSQSLSITCTVSGFSLSIYSVHWVRQPPGKGLEWLGMIWGGGSIDMNSALKSRLSISKDNSKSQVFLKMNSLQTDDTAMYYCARNGNFYAMDYWGQGTSVTVSS
VL: QIVLTQSPAIMSASLGERVTMTCTASSSVSSSFLHWYQQKPGSSPQLWIYSTSNLASGVPARFSGSGSGTSYSLTISSMEAEDAATYYCHQYHHSPYIYTFGGGTKLEIK
- OD450nm: 0.701
- Ratio OD(Variant)/OD(WT): 0.886

B10: KB001 mouse Fab FASEBA VH N60P (Fab, V domains shown)
VH: EVQLKQSGPGLVAPSQSLSITCTVSGFSLSIYSVHWVRQPPGKGLEWLGMIWGGGSSDYPSALKSRLSISKDNSKSQVFLKMNSLQTDDTAMYYCARNGNFYAMDYWGQGTSVTVSS
VL: QIVLTQSPAIMSASLGERVTMTCTASSSVSSSFLHWYQQKPGSSPQLWIYSTSNLASGVPARFSGSGSGTSYSLTISSMEAEDAATYYCHQYHHSPYIYTFGGGTKLEIK
- OD450nm: 0.44 and 0.428
- Ratio OD(Variant)/OD(WT): 0.892 and 0.867

B11: KB001 mouse Fab FASEBA VH S61F (Fab, V domains shown)
VH: EVQLKQSGPGLVAPSQSLSITCTVSGFSLSIYSVHWVRQPPGKGLEWLGMIWGGGSSDYNFALKSRLSISKDNSKSQVFLKMNSLQTDDTAMYYCARNGNFYAMDYWGQGTSVTVSS
VL: QIVLTQSPAIMSASLGERVTMTCTASSSVSSSFLHWYQQKPGSSPQLWIYSTSNLASGVPARFSGSGSGTSYSLTISSMEAEDAATYYCHQYHHSPYIYTFGGGTKLEIK
- OD450nm: 0.432 and 0.473
- Ratio OD(Variant)/OD(WT): 0.875 and 0.958

B12: KB001 mouse Fab FASEBA VH S61M (Fab, V domains shown)
VH: EVQLKQSGPGLVAPSQSLSITCTVSGFSLSIYSVHWVRQPPGKGLEWLGMIWGGGSSDYNMALKSRLSISKDNSKSQVFLKMNSLQTDDTAMYYCARNGNFYAMDYWGQGTSVTVSS
VL: QIVLTQSPAIMSASLGERVTMTCTASSSVSSSFLHWYQQKPGSSPQLWIYSTSNLASGVPARFSGSGSGTSYSLTISSMEAEDAATYYCHQYHHSPYIYTFGGGTKLEIK
- OD450nm: 0.493 and 0.479
- Ratio OD(Variant)/OD(WT): 0.999 and 0.971

B13: KB001 mouse Fab FASEBA VH Y59R (Fab, V domains shown)
VH: EVQLKQSGPGLVAPSQSLSITCTVSGFSLSIYSVHWVRQPPGKGLEWLGMIWGGGSSDRNSALKSRLSISKDNSKSQVFLKMNSLQTDDTAMYYCARNGNFYAMDYWGQGTSVTVSS
VL: QIVLTQSPAIMSASLGERVTMTCTASSSVSSSFLHWYQQKPGSSPQLWIYSTSNLASGVPARFSGSGSGTSYSLTISSMEAEDAATYYCHQYHHSPYIYTFGGGTKLEIK
- OD450nm: 0.633
- Ratio OD(Variant)/OD(WT): 0.8

B14: KB001 mouse Fab FASEBA VH S61Y (Fab, V domains shown)
VH: EVQLKQSGPGLVAPSQSLSITCTVSGFSLSIYSVHWVRQPPGKGLEWLGMIWGGGSSDYNYALKSRLSISKDNSKSQVFLKMNSLQTDDTAMYYCARNGNFYAMDYWGQGTSVTVSS
VL: QIVLTQSPAIMSASLGERVTMTCTASSSVSSSFLHWYQQKPGSSPQLWIYSTSNLASGVPARFSGSGSGTSYSLTISSMEAEDAATYYCHQYHHSPYIYTFGGGTKLEIK
- OD450nm: 0.423
- Ratio OD(Variant)/OD(WT): 0.857

B15: KB001 mouse Fab FASEBA VH S61W (Fab, V domains shown)
VH: EVQLKQSGPGLVAPSQSLSITCTVSGFSLSIYSVHWVRQPPGKGLEWLGMIWGGGSSDYNWALKSRLSISKDNSKSQVFLKMNSLQTDDTAMYYCARNGNFYAMDYWGQGTSVTVSS
VL: QIVLTQSPAIMSASLGERVTMTCTASSSVSSSFLHWYQQKPGSSPQLWIYSTSNLASGVPARFSGSGSGTSYSLTISSMEAEDAATYYCHQYHHSPYIYTFGGGTKLEIK
- OD450nm: 0.435 and 0.429
- Ratio OD(Variant)/OD(WT): 0.881 and 0.869
